Measurements published in patent US20180214568A1.

Key:
[1] = target: CD56 on the surface of human neuroblastoma cells (human) (UniProt P13591); experiment: cell-based or functional assay
[2] = target: human CD56 whole ectodomain (residues 20-720) (human) (UniProt P13591); experiment: SPR (BIACORE X100), CD56 ectodomain immobilized, Fab in flow, 1:1 model
[3] = target: human CD56 whole ectodomain (residues 20-720) (human) (UniProt P13591); experiment: BIACORE, Fab on immobilised CD56 ectodomain
[4] = target: CD56 on the surface of human neuroblastoma cells (human) (UniProt P13591)

B1: m906 IgG1 (antibody, V domains shown)
VH: EVQLVQSGAEVKKPGSSVKVSCKASGGTFTGYYMHWVRQAPGQGLEWMGWINPNSGGTNYAQKFQGRVTMTRDTSISTAYMELSRLRSDDTAVYYCARDLSSGYSGYFDYWGQGTLVTVSS
VL: DVVMTQSPLSLPVTPGEPASISCRSSQSLLHSNGYNFLDWYLQKPGQSPQLLIYLGSNRASGVPDRFSGSGSGTDFTLKISRVEADDVGVYYCMQSLQTPWTFGHGTKVEIKR
percent reduction in CD56 cell surface expression, Kelly cells, 50 nM m906 overnight [1]: 93% | percent reduction in CD56 cell surface expression, SKNAS cells, 50 nM m906 overnight [1]: 21% | percent reduction in CD56 cell surface expression, other neuroblastoma cell lines, 50 nM m906 overnight [1]: > 60%

B2: m906 Fab (Fab, V domains shown)
VH: B1 VH
VL: B1 VL
Kd [2]: 4.5 nM | Kd [3]: 4.49 nM

B3: m906PBD (antibody, V domains shown)
VH: B1 VH
VL: B1 VL
modifications: PBD-MC conjugated to cysteine residues of the reduced IgG (sites not given); PBD-MC (pyrrolobenzodiazepine dimer with maleimide) conjugated to cysteine residues of the reduced IgG
IC50 (read off the curve), % survival of CHP134 cells, ADC alone [4]: 10 pM | killing of IMR5 cells (cell viability, 4 days) [1]: 5 pM
